The experiment has as its target T1, endogenous Vps11 (HOPS subunit) (rat, UniProt D3ZTB4 2-941).
T1 construct: whole, on cells; Endogenous protein detected in situ with an anti-Vps11 antibody; also called vacuolar protein sorting-associated protein 11 homolog
T1 sequence: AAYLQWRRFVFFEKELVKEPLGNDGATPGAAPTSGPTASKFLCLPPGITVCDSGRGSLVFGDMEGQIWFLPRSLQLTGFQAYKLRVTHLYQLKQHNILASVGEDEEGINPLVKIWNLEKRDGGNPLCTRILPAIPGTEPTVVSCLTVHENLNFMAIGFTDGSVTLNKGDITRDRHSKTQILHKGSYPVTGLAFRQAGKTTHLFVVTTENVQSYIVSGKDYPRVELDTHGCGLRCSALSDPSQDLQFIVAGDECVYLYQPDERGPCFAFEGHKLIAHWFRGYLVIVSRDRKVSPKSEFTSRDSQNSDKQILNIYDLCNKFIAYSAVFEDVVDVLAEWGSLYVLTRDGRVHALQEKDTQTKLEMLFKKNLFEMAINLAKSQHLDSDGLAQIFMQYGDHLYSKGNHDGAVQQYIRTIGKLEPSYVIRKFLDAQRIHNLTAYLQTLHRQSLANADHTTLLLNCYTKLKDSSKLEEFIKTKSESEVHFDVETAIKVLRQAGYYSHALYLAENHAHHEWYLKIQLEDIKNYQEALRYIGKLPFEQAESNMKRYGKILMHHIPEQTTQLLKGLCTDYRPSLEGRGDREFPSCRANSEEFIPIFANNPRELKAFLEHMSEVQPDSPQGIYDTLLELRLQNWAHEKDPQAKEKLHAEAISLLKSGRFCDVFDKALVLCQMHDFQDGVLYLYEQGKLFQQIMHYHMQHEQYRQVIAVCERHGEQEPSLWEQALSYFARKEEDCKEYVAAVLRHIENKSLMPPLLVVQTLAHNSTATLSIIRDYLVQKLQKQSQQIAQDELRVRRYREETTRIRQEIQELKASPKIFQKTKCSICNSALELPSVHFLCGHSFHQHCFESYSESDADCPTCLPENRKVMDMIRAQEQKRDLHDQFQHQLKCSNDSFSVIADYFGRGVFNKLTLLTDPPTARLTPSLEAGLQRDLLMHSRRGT
In words: proximity ligation assay (in situ co-IP) in transfected hepatic cells, baseline (OA) and 1 h post-EPA.

Experimental: The A18-C3 cells were cultured in DMEM (Invitrogen) supplemented with fetal bovine serum (20%), penicillin (50 U/mL), streptomycin (50 μg/mL, Invitrogen) and Geneticin/G418 (500 μg/mL, Gibco) at 37° C. in 5% CO₂. Transfection was conducted when cells were 60-70% confluence. Appropriate plasmids were mixed with FuGENE HP extreme reagent (Roche Diagnostic), according to manufacturer's protocol, and incubated for 30 min. […] In silencing experiments, appropriate siRNAs were transfected into cells using the X-treme GENE siRNA regent (Roche Diagnostic).
One h post-EPA treatment, the cells were fixed, permeabilized and incubated with an anti-RFP antibody together with proper anti-Vps11, -Vps39, and -Vps41 antibodies. The proximity ligation was achieved using the Duolink secondary PLA probes (Olink AB) that detects substrate formation between the two antibodies as described previously³⁸.

B1: mCherry-tagged Arl8b^T34N (other)
chain: MLALISRLLDWFRSLFWKEEMELTLVGLQYSGKNTFVNVIASGQFSEDMIPTVGFNMRKVTKGNVTIKIWDIGGQPRFRSMWERYCRGVNAIVYMIDAADREKIEASRNELHNLLDKPQLQGIPVLVLGNKRDLPNALDEKQLIEKMNLSAIQDREICCYSISCKEKDNIDITLQWLIQHSKSRRS
notes: Fusion protein expressed by plasmid transfection inside McA-RH7777 (A18-C3) hepatic cells and detected in situ with an anti-RFP antibody; also called ^mCherryArl8b^T34N; RFP-tagged Arl8b^T34N; not shown: C-terminal mCherry tag and its RDP linker
As to B1, the binding result is listed as “no binding”.

(Values after patent US20190125827A1 (UNIVERSITY OF OTTAWA, published 2019).)
